Results on 2 molecules are retold here after US20220073608A1.

For experiment [1], the target named is T1, human SEMA4D, full length, on CHO-K1 cells (CHO-K1 hSEMA4D) (human) (UniProt Q92854).
T1 sequence (looked up): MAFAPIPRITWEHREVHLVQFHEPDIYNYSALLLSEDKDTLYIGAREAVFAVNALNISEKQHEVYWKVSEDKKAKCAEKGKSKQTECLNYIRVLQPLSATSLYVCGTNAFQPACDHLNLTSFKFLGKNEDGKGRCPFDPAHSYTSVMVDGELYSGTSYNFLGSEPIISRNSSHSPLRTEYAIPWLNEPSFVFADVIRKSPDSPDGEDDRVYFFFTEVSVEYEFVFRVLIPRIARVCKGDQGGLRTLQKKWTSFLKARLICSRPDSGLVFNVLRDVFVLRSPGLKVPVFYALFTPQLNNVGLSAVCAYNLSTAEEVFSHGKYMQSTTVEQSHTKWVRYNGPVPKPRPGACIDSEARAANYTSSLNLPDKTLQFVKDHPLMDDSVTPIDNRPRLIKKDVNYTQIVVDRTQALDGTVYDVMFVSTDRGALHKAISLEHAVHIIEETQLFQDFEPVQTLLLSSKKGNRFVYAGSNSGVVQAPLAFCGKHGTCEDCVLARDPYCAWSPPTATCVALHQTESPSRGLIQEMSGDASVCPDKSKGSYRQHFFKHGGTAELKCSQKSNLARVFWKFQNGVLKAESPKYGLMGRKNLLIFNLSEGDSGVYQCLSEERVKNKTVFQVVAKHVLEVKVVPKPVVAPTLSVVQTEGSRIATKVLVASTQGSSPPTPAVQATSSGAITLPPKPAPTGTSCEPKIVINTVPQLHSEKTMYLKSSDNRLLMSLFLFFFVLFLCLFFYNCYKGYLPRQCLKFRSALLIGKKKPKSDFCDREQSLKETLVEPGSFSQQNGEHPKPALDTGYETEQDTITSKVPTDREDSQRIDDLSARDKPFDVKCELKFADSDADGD
Kind of experiment: competitive FACS, CHO-K1 hSEMA4D cells; unlabelled Ab 6 ug/mL first, competitor Alexa 488-2D5 0.67 ug/mL.

Experiment [2] deals with T1, human SEMA4D, full length, on CHO-K1 cells (CHO-K1 hSEMA4D) (human). As to the kind of experiment: competitive FACS, CHO-K1 hSEMA4D cells; unlabelled Ab 6 ug/mL first, competitor Alexa 488-5D8 0.67 ug/mL.
The target is the same in experiment [3]. Kind of experiment: competitive FACS, CHO-K1 hSEMA4D cells; unlabelled Ab 6 ug/mL first, competitor Alexa 488-VX15 0.67 ug/mL.
For experiment [4], the target named is T2, biotinylated hSEMA4D ECD-His (human) (UniProt Q92854).
T2 sequence (chain, biotinylated with Biotin-X-X-NHS at a molar ratio of 8,1; sites not stated): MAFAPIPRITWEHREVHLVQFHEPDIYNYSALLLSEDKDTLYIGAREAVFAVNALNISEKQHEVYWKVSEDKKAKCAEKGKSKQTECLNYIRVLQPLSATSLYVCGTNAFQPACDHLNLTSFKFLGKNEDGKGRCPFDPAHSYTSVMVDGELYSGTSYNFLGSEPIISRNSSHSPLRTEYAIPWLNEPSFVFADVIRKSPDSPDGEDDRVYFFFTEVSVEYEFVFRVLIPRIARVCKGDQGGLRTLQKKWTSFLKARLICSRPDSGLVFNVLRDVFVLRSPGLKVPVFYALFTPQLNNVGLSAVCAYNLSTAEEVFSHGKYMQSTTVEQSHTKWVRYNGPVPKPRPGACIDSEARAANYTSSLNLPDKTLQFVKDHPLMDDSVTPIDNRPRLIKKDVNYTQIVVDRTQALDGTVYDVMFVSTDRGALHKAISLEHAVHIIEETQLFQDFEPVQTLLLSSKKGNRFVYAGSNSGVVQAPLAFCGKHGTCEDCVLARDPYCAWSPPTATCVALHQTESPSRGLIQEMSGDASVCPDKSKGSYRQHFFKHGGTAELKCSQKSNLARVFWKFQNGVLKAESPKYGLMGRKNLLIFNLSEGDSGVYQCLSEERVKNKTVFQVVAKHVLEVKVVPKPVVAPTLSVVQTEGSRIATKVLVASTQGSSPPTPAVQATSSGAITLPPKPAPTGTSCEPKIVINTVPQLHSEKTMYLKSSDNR
As to the kind of experiment: BLI (Octet-Red), scFv in bacterial periplasmic extract; off-rate ranking. In general terms: BLI is a label-free optical method that tracks binding on a fibre tip over time.

B1: VX15 (antibody, INN chains, looked up, V domains shown)
VH: QVQLVQSGAEVKKPGSSVKVSCKASGYSFSDYYMHWVRQAPGQGLEWMGQINPTTGGASYNQKFKGKATITVDKSTSTAYMELSSLRSEDTAVYYCARYYYGRHFDVWGQGTTVTVSS
VL: DIVMTQSPDSLAVSLGERATINCKASQSVDYDGDSYMNWYQQKPGQPPKLLIYAASNLESGVPDRFSGSGSGTDFTLTISSLQAEDVAVYYCQQSNEDPYTFGQGTKLEIK
As for B1, the inhibition rate (%) amounted to 96% in experiment [1], 98% in experiment [2] and 97% in experiment [3].

B2: 2D5-b1-3D9 scFv (periplasmic extract) (scFv, part only; not given: linker, domain order, tags, V domains shown, not shown: another chain or arm of the molecule; large carriers; small tags and cut ends)
VH: QVTLRESGPALVKPTQTLTLTCTFSGFSLTTTGVAVTWIRQPPGKALEWLALIDWDDDKYYSTSLKTRLTISKDTSKNQVVLTMTNMDPVDTATYYCARIASGDSGGYFADWGQGTLVTVSS
VL: SYELTQPPSVSVSPGQTASITCSGDKLDDKYVYWYQQKPGQSPVLVIYMDNKRKSGIPERFSGSNSGNTATLTISGTQAMDEADYYCQAWESSSDQYVFGTGTKVTVL
B2: the fold reduction of off-rate against the wild type in experiment [4] came to 45 times.
